Measured values reported in IntAct's records for PubMed 12172031.

B1: Coronatine-insensitive protein 1 (Arabidopsis thaliana (Mouse-ear cress)), O04197 (parent)
chain: MEDPDIKRCKLSCVATVDDVIEQVMTYITDPKDRDSASLVCRRWFKIDSETREHVTMALCYTATPDRLSRRFPNLRSLKLKGKPRAAMFNLIPENWGGYVTPWVTEISNNLRQLKSVHFRRMIVSDLDLDRLAKARADDLETLKLDKCSGFTTDGLLSIVTHCRKIKTLLMEESSFSEKDGKWLHELAQHNTSLEVLNFYMTEFAKISPKDLETIARNCRSLVSVKVGDFEILELVGFFKAAANLEEFCGGSLNEDIGMPEKYMNLVFPRKLCRLGLSYMGPNEMPILFPFAAQIRKLDLLYALLETEDHCTLIQKCPNLEVLETRNVIGDRGLEVLAQYCKQLKRLRIERGADEQGMEDEEGLVSQRGLIALAQGCQELEYMAVYVSDITNESLESIGTYLKNLCDFRLVLLDREERITDLPLDNGVRSLLIGCKKLRRFAFYLRQGGLTDLGLSYIGQYSPNVRWMLLGYVGESDEGLMEFSRGCPNLQKLEMRGCCFSERAIAAAVTKLPSLRYLWVQGYRASMTGQDLMQMARPYWNIELIPSRRVPEVNQQGEIREMEHPAHILAYYSLAGQRTDCPTTVRVLKEPI

Variants of: B1
Details: with skp1a_arath SKP1A

| Variant | effect of a mutation on the interaction |
| --- | --- |
| MEDPDIKRCKLSCVATVDDVIAQVMTYITDPKDRDSASLVCRRWFKIDSETREHVTMALCYTATPDRLSRRFPNLRSLKLKGKPRAAMFNLIPENWGGYVTPWVTEISNNLRQLKSVHFRRMIVSDLDLDRLAKARADDLETLKLDKCSGFTTDGLLSIVTHCRKIKTLLMEESSFSEKDGKWLHELAQHNTSLEVLNFYMTEFAKISPKDLETIARNCRSLVSVKVGDFEILELVGFFKAAANLEEFCGGSLNEDIGMPEKYMNLVFPRKLCRLGLSYMGPNEMPILFPFAAQIRKLDLLYALLETEDHCTLIQKCPNLEVLETRNVIGDRGLEVLAQYCKQLKRLRIERGADEQGMEDEEGLVSQRGLIALAQGCQELEYMAVYVSDITNESLESIGTYLKNLCDFRLVLLDREERITDLPLDNGVRSLLIGCKKLRRFAFYLRQGGLTDLGLSYIGQYSPNVRWMLLGYVGESDEGLMEFSRGCPNLQKLEMRGCCFSERAIAAAVTKLPSLRYLWVQGYRASMTGQDLMQMARPYWNIELIPSRRVPEVNQQGEIREMEHPAHILAYYSLAGQRTDCPTTVRVLKEPI [E22A] | decreasing interaction |

Variants of: B1
Details: with skp1b_arath SKP1B

| Variant | effect of a mutation on the interaction |
| --- | --- |
| MEDPDIKRCKLSCVATVDDVIAQVMTYITDPKDRDSASLVCRRWFKIDSETREHVTMALCYTATPDRLSRRFPNLRSLKLKGKPRAAMFNLIPENWGGYVTPWVTEISNNLRQLKSVHFRRMIVSDLDLDRLAKARADDLETLKLDKCSGFTTDGLLSIVTHCRKIKTLLMEESSFSEKDGKWLHELAQHNTSLEVLNFYMTEFAKISPKDLETIARNCRSLVSVKVGDFEILELVGFFKAAANLEEFCGGSLNEDIGMPEKYMNLVFPRKLCRLGLSYMGPNEMPILFPFAAQIRKLDLLYALLETEDHCTLIQKCPNLEVLETRNVIGDRGLEVLAQYCKQLKRLRIERGADEQGMEDEEGLVSQRGLIALAQGCQELEYMAVYVSDITNESLESIGTYLKNLCDFRLVLLDREERITDLPLDNGVRSLLIGCKKLRRFAFYLRQGGLTDLGLSYIGQYSPNVRWMLLGYVGESDEGLMEFSRGCPNLQKLEMRGCCFSERAIAAAVTKLPSLRYLWVQGYRASMTGQDLMQMARPYWNIELIPSRRVPEVNQQGEIREMEHPAHILAYYSLAGQRTDCPTTVRVLKEPI [E22A] | decreasing interaction |

Variants of: B1
Details: with cul1_arath CUL1, Q94AH6
cul1_arath CUL1, Q94AH6, sequence (Q94AH6 whole entry): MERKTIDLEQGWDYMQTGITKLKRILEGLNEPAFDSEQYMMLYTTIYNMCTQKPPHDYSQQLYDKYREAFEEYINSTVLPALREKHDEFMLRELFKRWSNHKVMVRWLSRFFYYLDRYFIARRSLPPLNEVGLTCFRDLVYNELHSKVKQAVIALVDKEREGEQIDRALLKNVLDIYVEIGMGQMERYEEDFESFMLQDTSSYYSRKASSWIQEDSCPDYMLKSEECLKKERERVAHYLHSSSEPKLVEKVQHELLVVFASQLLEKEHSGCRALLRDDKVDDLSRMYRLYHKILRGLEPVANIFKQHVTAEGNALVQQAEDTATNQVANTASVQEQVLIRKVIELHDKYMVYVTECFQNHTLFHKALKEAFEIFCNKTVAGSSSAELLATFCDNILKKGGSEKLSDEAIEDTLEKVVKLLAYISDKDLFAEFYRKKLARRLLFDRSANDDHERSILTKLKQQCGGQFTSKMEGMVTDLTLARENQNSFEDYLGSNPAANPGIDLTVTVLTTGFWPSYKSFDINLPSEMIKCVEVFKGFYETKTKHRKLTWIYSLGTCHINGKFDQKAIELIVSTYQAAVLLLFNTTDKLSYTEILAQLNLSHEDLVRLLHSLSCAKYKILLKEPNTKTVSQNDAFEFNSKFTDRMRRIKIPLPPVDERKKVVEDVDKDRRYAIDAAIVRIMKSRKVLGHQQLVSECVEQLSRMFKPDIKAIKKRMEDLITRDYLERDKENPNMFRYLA

| Variant | effect of a mutation on the interaction |
| --- | --- |
| MEDPDIKRCKLSCVATVDDVIAQVMTYITDPKDRDSASLVCRRWFKIDSETREHVTMALCYTATPDRLSRRFPNLRSLKLKGKPRAAMFNLIPENWGGYVTPWVTEISNNLRQLKSVHFRRMIVSDLDLDRLAKARADDLETLKLDKCSGFTTDGLLSIVTHCRKIKTLLMEESSFSEKDGKWLHELAQHNTSLEVLNFYMTEFAKISPKDLETIARNCRSLVSVKVGDFEILELVGFFKAAANLEEFCGGSLNEDIGMPEKYMNLVFPRKLCRLGLSYMGPNEMPILFPFAAQIRKLDLLYALLETEDHCTLIQKCPNLEVLETRNVIGDRGLEVLAQYCKQLKRLRIERGADEQGMEDEEGLVSQRGLIALAQGCQELEYMAVYVSDITNESLESIGTYLKNLCDFRLVLLDREERITDLPLDNGVRSLLIGCKKLRRFAFYLRQGGLTDLGLSYIGQYSPNVRWMLLGYVGESDEGLMEFSRGCPNLQKLEMRGCCFSERAIAAAVTKLPSLRYLWVQGYRASMTGQDLMQMARPYWNIELIPSRRVPEVNQQGEIREMEHPAHILAYYSLAGQRTDCPTTVRVLKEPI [E22A] | decreasing interaction |
